In PMC10858392 (Cell reports, 2023):

Experiments:
Assay in all cases: ELISA
human insulin = human insulin (Homo sapiens, UniProt P01308)
[1] = biological target: albumin from human serum, low endotoxin (Homo sapiens, UniProt P02768)
[2] = biological target: lysozyme from chicken egg white (Gallus gallus, UniProt P00698)
ubiquitin (in-house) = ubiquitin (in-house) (Homo sapiens, UniProt P0CG47)

Sequence of lysozyme from chicken egg white (P00698 19-147): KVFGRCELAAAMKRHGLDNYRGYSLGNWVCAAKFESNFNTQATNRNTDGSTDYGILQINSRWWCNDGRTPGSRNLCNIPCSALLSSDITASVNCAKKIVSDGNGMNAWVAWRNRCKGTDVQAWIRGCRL
Sequence of human insulin (P01308 whole entry, looked up): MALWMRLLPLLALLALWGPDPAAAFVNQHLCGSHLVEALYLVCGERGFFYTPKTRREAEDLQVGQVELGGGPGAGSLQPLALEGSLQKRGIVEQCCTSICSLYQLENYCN
Sequence of albumin from human serum, low endotoxin (P02768 25-609): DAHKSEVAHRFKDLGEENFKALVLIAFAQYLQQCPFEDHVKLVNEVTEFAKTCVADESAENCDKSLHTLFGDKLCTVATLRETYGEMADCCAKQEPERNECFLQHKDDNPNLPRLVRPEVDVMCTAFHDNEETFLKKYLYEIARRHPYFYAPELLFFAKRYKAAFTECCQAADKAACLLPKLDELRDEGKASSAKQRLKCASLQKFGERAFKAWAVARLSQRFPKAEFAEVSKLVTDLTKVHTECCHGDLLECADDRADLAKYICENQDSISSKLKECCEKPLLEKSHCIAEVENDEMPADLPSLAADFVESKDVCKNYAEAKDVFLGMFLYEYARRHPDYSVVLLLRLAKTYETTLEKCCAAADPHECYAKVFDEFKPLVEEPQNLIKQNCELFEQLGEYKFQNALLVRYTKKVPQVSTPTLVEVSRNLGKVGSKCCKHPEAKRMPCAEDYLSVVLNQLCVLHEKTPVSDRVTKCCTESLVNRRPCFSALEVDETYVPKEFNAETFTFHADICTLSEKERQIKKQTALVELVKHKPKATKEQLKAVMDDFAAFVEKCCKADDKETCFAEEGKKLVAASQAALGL

Row | binding result (human insulin) | binding result [2] | binding result (ubiquitin (in-house)) | Binder | binding result [1]
1 | binds | binds | binds | 338E6 mAb (polyreactive mouse IgA monoclonal antibody, full-length) (antibody, V domains shown) VH: EVKLEESGGDLVKPGGSLKLSCAASGFTFSSYGMSWVRQTPDKRLEWVATISSGGSYTYYPDSVKGRFTISRDNAKNTLYLQMSSLKSEDTAMYYCARRGFYFDYWGQGTTLTVSS VL: ETTVTQSQKFMSTSVGDRVSVTCKASQNVGTNVAWYQQKPGQSPKALIYSASYRYSGVPDRFTGSGSGTDFTLTISNVQSEDLAEYFCQQYNSYPLTFGQGTKVEIK | binds
2 | binds | binds | binds | 43G10 mAb (polyreactive mouse IgA monoclonal antibody, full-length) (antibody, V domains shown) VH: QVQLKQSGPGLVKPSQSLSLTCSVTGYSITSGFYWTWIRQFPGNKVEWMGYINYAGNNDYNPSLKDRISITRDTSKNQFFLKLNSVTSEDTATYYCTRGTGRIEYWGQGTSVTVSS VL: DIKMTQSPSSLAVSVGEKVSMSCKSSQSLLYSYNQKNYLAWYQQAPGQSPKLLIYWASTRESGVPDRFTGSGSGTDFTLTISNVKTEDLAVYYCQQYHSHPLTFGQGTKVEIK | binds
